PMC3940202, “Structure of Bacillus subtilis γ-glutamyltranspeptidase in complex with acivicin: diversity of the binding mode of a classical and electrophilic active-site-directed glutamate analogue” (Acta Crystallographica Section D: Biological Crystallography, 2014)

Target: T1, Bacillus subtilis γ-glutamyltranspeptidase large (L) subunit (Bacillus subtilis, UniProt P54422 36-402)
T1 construct: γ-glutamyltranspeptidase (GGT; EC 2.3.2.2) of Bacillus subtilis, large subunit, residues 36-402, formed from the precursor by autocatalytic cleavage before Thr403; The range 36-402 is what it gives for the L subunit of the protein; The His-tag segment and residues 396-402 are disordered in the crystal; also called GGT L subunit; His6-GGT (large subunit); source: E. coli C41(DE3), plasmid pCold …
T1 sequence (looked up): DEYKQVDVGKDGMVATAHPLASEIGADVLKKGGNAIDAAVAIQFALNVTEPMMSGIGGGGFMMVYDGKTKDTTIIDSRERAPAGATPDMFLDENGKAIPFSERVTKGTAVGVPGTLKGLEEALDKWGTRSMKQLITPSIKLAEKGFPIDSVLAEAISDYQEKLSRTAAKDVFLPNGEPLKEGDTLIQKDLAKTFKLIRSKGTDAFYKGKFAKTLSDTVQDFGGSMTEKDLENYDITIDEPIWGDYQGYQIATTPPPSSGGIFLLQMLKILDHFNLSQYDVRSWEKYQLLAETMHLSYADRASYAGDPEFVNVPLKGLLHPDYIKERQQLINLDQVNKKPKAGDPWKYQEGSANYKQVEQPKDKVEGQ
Test: crystal structure; micro-oil batch method at 293 K; 10 mg/ml protein in 50 mM HEPES pH 7.0 mixed with 26%(w/v) PEG 3350, 0.7 M sodium thiocyanate, 6%(v/v) ethylene glycol; crystals soaked 2 h in 5 mM acivicin; refined at 1.8 Å; one heterodimer in the asymmetric unit
Settings: both partners purified

B1: Bacillus subtilis γ-glutamyltranspeptidase small (S) subunit (enzyme, UniProt P54422 403-587, looked up)
chain: TTHFTVADRWGNVVSYTTTIEQLFGTGIMVPDYGVILNNELTDFDAIPGGANEVQPNKRPLSSMTPTILFKDDKPVLTVGSPGGATIISSVLQTILYHIEYGMELKAAVEEPRIYTNSMSSYRYEDGVPKDVLSKLNGMGHKFGTSPVDIGNVQSISIDHENGTFKGVADSSRNGAAIGINLKRK
modifications: acivicin covalently bound through its C3 atom to Thr403 Oγ (crystal soaked for 120 min, PDB 3whs; not in the crystal without soaking, PDB 3whq)
notes: γ-glutamyltranspeptidase (GGT); Made as one His6-tagged precursor with the L subunit and processed autocatalytically; also called GGT S subunit
binding result: binds
